The subject of data set [1] is NS5A domain I WT (Hepatitis C virus JFH-1 (genotype 2a)). The data set is described as follows: filter binding. The settings on record: Binding buffer and temperature not given (as in ref 32); slot blot nitrocellulose/nylon, hyperbolic fit; protein dialyzed in 20 mM Tris-HCl pH 8.2, 150 mM ….
For the next data set, the target named is GST control protein. The data set is described as follows: GST pulldown, Western blot quantification (Li-Cor Odyssey Sa). The settings on record: parent: est. 0.78; read off a plot.
Data set [2] has as its target NS5A domain I (35-215) P35A. Described as above. Conditions: parent: est. 7.4; read off a plot.
The target of data set [3] is NS5A domain I (35-215) P145A. The data set is described as above. Conditions: parent: est. 7.4; read off a plot.
In data set [4] the target is NS5A domain I (35-215) V67A. Described as above. The settings on record: parent: est. 7.4; read off a plot.

The text below walks through data of paper PMC5792032.

The Kd is the concentration at which binding is half-saturated. A low value points to a tighter complex.

HCV 3'UTR RNA yielded a Kd in data set [1] of 0.246 µM.
Take NS5A domain I (35-215), wild type P35A: the response worked out at 0.34 with GST control protein and 2.5 in data set [2].
As for NS5A domain I (35-215), wild type P145A, the response with GST control protein was determined as 0.34; in data set [3], 1.3.
NS5A domain I (35-215), wild type V67A: the response was determined as 0.15 in the data set with GST control protein and 0.39 in data set [4].
